Series [1] has as its target T1, AtGlcAK (Arabidopsis thaliana, UniProt Q93ZC9).
T1 construct: gene GLCAK1
T1 sequence (Q93ZC9 1-362): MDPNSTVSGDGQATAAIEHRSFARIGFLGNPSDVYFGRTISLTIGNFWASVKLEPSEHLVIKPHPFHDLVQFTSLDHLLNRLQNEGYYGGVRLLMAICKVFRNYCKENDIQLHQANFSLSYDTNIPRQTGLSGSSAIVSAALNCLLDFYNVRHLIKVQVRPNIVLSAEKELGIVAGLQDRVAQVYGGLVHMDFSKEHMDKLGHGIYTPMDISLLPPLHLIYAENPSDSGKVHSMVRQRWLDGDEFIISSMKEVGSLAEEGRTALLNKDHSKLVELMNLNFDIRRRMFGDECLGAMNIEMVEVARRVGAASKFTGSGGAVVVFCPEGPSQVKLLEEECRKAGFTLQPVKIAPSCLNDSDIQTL
The conditions noted are these: substrate inhibition; 5 mM GlcA, 5 mM MgCl2, 100 mM HEPES pH 7.5, 25 °C.

Substrate in series [2]: Nc1ncnc2c1ncn2[C@@H]1O[C@H](COP(=O)(O)OP(=O)(O)OP(=O)(O)O)[C@@H](O)[C@H]1O
Description: purified protein. The note with it: apparent, substrate-inhibition fit, 5 mM GlcA, 5 mM MgCl2, 100 mM HEPES pH 7.5, 25 °C.

Substrate in series [3]: O=P(O)(O)O[C@H]1O[C@H](CO)[C@@H](O)[C@H](O)[C@H]1O
Description: initial rates by multiplexed capillary electrophoresis; Michaelis-Menten fit. In kind it is biochemical, Arabidopsis thaliana. The conditions noted are these: 5 mM UTP, 15 mM MgCl2, 100 mM HEPES pH 8, 25 °C. The text has this:
(§1) initial rates by multiplexed capillary electrophoresis; Michaelis-Menten fit on AtUSP

Substrate in series [4]: O=c1ccn([C@@H]2O[C@H](COP(=O)(O)OP(=O)(O)OP(=O)(O)O)[C@@H](O)[C@H]2O)c(=O)[nH]1
Described as above. In kind it is biochemical, Arabidopsis thaliana. The conditions noted are these: 5 mM Glc-1-P, 15 mM MgCl2, 100 mM HEPES pH 8, 25 °C.
Excerpt: as §1

In general, Km refers to the concentration of substrate that gives half-maximal velocity.

With `Nc1ncnc2c1ncn2[C@@H]1O[C@H](COP(=O)(O)OP(=O)(O)OP(=O)(O)O)[C@@H](O)[C@H]1O` [ATP], in series [1], the AtGlcAK is on record as 2.87 mM.

B1: AtGlcAK (Arabidopsis thaliana) (protein)
chain: MDPNSTVSGDGQATAAIEHRSFARIGFLGNPSDVYFGRTISLTIGNFWASVKLEPSEHLVIKPHPFHDLVQFTSLDHLLNRLQNEGYYGGVRLLMAICKVFRNYCKENDIQLHQANFSLSYDTNIPRQTGLSGSSAIVSAALNCLLDFYNVRHLIKVQVRPNIVLSAEKELGIVAGLQDRVAQVYGGLVHMDFSKEHMDKLGHGIYTPMDISLLPPLHLIYAENPSDSGKVHSMVRQRWLDGDEFIISSMKEVGSLAEEGRTALLNKDHSKLVELMNLNFDIRRRMFGDECLGAMNIEMVEVARRVGAASKFTGSGGAVVVFCPEGPSQVKLLEEECRKAGFTLQPVKIAPSCLNDSDIQTL
Consider B1, for which the Km in series [2] is on record as 8.56 mM.

B2: AtUSP (Arabidopsis thaliana) (protein)
chain: ASTVDSNFFSSVPALHSNLGLLSPDQIELAKILLENGQSHLFQQWPELGVDDKEKLAFFDQIARLNSSYPGGLAAYIKTAKELLADSKVGKNPYDGFSPSVPSGENLTFGTDNFIEMEKRGVVEARNAAFVLVAGGLGERLGYNGIKVALPRETTTGTCFLQHYIESILALQEASNKIDSDGSERDIPFIIMTSDDTHSRTLDLLELNSYFGMKPTQVHLLKQEKVACLDDNDARLALDPHNKYSIQTKPHGHGDVHSLLYSSGLLHKWLEAGLKWVLFFQDTNGLLFNAIPASLGVSATKQYHVNSLAVPRKAKEAIGGISKLTHVDGRSMVINVEYNQLDPLLRASGFPDGDVNCETGFSPFPGNINQLILELGPYKDELQKTGGAIKEFVNPKYKDSTKTAFKSSTRLECMMQDYPKTLPPTARVGFTVMDIWLAYAPVKNNPEDAAKVPKGNPYHSATSGEMAIYRANSLILQKAGVKVEEPVKQVLNGQEVEVWSRITWKPKWGMIFSDIKKKVSGNCEVSQRSTMAIKGRNVFIKDLSLDGALIVDSIDDAEVKLGGLIKNNGWTMESVDYKDTSVPEEIRIRGFRFNKVEQLEKKLTQPGKFSVED
notes: full-length synthetic codon-optimized gene, pET-16b(+), N-terminal His10 tag, E. coli BL21(DE3), IMAC
For B2, the Km turned out to be 0.58 mM in series [3] and 0.44 mM in series [4].

Source of the values: paper PMC6888640, “Key Factors for a One-Pot Enzyme Cascade Synthesis of High Molecular Weight Hyaluronic Acid” (International Journal of Molecular Sciences, 2019).
